T1: human transglutaminase type 2 (TG2) (human, UniProt P21980 2-687)
T1 sequence: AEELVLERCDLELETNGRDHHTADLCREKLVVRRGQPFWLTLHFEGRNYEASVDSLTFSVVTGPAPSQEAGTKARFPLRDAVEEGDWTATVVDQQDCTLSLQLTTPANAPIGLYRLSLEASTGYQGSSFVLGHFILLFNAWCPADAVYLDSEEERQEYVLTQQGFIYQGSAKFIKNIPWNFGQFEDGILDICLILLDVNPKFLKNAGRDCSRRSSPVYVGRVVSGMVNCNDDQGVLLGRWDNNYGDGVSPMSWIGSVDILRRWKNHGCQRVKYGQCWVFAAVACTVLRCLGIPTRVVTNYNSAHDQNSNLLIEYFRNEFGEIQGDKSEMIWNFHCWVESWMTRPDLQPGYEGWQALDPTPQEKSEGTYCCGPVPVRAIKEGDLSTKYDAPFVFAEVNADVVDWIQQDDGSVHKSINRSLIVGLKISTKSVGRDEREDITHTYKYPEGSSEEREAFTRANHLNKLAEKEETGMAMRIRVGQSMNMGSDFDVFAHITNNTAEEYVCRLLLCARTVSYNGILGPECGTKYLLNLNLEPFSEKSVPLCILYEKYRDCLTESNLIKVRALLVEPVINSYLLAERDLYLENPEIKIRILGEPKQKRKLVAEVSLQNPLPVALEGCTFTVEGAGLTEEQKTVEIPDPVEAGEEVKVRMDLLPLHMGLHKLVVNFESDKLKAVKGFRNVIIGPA

B1: Zampilimab (antibody, V domains shown)
VH: EVQLLESGGGLVQPGGSLRLSCAASGFTLSTHAMSWVRQAPGKGLEWVATISSGGRSTYYPDSVKGRFTISRDNSKNTLYLQMNSLRAEDTAVYFCARLISTYWGQGTLVTVSS
VL: DITMTQSPSSLSASVGDRVTITCKASQDINSYLTWFQQKPGKAPKILIYLVNRLVDGVPSRFSGSGSGQDYALTISSLQPEDFATYYCLQYDDFPYTFGQGTKVEIK
B2: rbBB7 (antibody, V domains shown)
VH: EVQLLESGGRLVTPGGSLTLTCAASGIIFSSSAMSWVRQAPGKGLEWVATISSGGRSTYYPDSVKGRFTVSRDSSKNTLYLQMNSLRAEDTAVYYCAKLISPYWGQGTLVTVSS
VL: AIKMTQTPSSVSAAVGGTVTISCKASQDINSYLTWFQQKPGQPPKTLIYLTNRLMDGVPSRFSGSGSGQEFLLTISGLECDDAATYYCLQYVDFPYTFGGGTKVVVK

What was measured:
[1] = biological target: T1, human transglutaminase type 2 (TG2); experiment: cell-based or functional assay
rabbit TG2 = rabbit TG2 (rabbit); experiment: cell-based or functional assay

Binder	IC50 against human TG2 [1] [nM]	IC50 against rabbit TG2 (rabbit TG2) [nM]
B1	0.25	103
B2	0.3	8

Source: patent publication US20250026856A1 (UCB, published 2025)
